Results as given in patent US20240425885.

How the values were obtained:
Assay in all cases: cleavage_in_vitro
[1] = system: T1, OMNI-132 (metagenomic, unknown); settings: TXTL; PAM NNAAATNN
T1 sequence: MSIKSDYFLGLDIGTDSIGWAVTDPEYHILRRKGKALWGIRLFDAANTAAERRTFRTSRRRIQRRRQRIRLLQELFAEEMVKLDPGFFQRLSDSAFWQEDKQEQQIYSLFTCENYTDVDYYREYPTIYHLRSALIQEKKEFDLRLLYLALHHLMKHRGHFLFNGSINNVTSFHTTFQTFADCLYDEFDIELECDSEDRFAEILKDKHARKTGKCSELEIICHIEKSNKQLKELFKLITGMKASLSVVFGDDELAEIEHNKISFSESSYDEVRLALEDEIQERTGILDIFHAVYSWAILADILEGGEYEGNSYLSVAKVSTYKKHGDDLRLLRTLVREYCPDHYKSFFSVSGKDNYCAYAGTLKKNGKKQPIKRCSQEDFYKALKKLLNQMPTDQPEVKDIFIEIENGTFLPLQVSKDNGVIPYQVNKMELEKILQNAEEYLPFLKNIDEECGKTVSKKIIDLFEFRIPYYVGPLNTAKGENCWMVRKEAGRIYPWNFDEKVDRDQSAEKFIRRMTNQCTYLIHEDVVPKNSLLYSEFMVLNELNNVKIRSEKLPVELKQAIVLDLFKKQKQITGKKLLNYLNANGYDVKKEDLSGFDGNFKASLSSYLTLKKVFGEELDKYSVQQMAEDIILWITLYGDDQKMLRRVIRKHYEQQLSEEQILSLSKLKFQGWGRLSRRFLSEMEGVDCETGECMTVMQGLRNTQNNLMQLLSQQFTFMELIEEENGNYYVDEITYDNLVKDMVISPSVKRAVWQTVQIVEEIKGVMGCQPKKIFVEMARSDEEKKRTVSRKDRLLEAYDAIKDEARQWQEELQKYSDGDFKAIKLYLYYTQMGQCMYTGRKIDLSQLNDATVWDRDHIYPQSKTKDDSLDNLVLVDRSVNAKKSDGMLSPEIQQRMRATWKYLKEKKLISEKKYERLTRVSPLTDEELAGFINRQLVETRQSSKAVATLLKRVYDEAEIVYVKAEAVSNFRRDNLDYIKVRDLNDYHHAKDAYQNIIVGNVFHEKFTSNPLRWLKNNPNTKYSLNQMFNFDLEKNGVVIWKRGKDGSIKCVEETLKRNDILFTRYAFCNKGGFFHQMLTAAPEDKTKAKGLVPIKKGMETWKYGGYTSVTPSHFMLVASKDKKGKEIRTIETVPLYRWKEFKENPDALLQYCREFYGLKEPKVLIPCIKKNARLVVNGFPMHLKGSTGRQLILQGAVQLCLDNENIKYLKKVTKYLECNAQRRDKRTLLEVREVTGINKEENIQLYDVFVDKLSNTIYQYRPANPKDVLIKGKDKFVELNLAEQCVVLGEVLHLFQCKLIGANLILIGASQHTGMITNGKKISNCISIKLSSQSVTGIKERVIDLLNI

[2] = system: T2, OMNI-118 (metagenomic, unknown); settings: TXTL; PAM NNRTTHNN
T2 sequence: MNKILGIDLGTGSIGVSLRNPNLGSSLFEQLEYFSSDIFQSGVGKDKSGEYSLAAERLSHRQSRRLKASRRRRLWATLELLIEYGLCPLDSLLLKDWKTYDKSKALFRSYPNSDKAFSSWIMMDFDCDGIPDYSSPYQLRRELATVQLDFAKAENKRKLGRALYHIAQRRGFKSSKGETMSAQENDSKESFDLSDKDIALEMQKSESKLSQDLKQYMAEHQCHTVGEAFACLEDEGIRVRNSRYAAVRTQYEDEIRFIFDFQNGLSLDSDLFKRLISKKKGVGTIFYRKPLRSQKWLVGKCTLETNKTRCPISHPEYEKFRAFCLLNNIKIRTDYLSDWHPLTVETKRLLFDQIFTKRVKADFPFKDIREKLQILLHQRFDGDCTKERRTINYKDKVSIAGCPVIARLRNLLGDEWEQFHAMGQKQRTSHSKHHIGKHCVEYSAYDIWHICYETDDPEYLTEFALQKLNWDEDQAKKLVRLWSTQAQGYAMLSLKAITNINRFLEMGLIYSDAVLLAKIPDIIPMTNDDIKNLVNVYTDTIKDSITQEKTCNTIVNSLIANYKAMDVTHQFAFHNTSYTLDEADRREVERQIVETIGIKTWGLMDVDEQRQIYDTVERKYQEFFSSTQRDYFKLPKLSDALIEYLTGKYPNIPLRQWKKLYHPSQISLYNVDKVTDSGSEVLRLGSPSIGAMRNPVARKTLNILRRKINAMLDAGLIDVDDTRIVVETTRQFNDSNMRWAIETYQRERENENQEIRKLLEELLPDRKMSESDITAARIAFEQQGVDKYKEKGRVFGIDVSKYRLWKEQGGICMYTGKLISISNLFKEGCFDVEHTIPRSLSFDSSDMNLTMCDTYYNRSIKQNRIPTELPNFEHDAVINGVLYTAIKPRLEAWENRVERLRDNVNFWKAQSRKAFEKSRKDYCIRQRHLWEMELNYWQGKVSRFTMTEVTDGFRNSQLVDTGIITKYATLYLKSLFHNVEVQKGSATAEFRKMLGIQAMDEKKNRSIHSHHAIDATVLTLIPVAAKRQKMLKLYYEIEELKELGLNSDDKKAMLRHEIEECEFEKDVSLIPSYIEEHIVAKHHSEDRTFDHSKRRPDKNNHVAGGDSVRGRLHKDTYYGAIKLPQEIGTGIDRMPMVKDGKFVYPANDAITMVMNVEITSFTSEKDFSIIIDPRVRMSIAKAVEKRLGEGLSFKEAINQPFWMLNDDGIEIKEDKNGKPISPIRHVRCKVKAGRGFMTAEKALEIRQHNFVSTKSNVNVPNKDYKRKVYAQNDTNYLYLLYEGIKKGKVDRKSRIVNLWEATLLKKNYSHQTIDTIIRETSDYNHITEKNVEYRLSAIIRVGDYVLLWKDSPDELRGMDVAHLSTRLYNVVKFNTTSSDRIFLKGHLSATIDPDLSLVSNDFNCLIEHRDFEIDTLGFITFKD

[3] = system: T3, OMNI-93 (metagenomic, unknown); settings: TXTL
T3 sequence: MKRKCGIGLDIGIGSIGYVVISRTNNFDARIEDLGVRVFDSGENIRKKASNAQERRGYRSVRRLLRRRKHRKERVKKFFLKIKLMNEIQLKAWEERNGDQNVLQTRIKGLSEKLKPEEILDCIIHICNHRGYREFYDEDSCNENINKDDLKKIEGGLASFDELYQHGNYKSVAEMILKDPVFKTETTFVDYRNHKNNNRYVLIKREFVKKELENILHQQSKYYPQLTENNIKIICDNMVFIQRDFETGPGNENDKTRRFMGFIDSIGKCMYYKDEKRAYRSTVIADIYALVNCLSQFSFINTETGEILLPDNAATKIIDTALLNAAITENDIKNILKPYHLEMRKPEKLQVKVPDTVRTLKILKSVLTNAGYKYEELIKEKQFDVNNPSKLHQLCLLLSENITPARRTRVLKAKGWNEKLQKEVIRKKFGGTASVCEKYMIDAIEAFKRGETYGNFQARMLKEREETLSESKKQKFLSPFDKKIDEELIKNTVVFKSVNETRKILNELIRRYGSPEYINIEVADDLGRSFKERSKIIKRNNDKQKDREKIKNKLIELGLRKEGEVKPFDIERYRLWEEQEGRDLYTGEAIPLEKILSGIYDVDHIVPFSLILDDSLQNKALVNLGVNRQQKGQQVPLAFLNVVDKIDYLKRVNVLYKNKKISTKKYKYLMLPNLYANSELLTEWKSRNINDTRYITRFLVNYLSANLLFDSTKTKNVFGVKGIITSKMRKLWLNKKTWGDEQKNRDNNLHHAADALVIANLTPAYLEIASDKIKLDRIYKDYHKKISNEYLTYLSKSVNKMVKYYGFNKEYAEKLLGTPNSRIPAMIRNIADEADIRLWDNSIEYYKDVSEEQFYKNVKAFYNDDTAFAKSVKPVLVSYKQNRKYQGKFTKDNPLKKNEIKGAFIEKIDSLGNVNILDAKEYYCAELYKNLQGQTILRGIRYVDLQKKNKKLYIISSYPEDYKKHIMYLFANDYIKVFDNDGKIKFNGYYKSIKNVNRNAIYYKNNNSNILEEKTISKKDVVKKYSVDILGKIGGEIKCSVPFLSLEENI

Sequence	activity (1-depletion score) [1]	activity (1-depletion score) [2]	also measured
GGAAGAGCAGAGCCUUGGUCUCGUUUGAGAGUAGUGUAAGAAAUUACACUACAAGUUCAAAUAAAAAUUUAUUCAAAUCCUUUUGCUACAUUGUGUAGAAUUUAAAGAUCUGGCAACAGAUCUUUUUUAUUUUUU / GGAAGAGCAGAGCCTTGGTCTCNNNNNNNN / NNNNNNNNGAGACCAAGGCTCTGCTCTTCC [T2 sgRNA 32 V1 ; T2 protospacer + 8N PAM library (pbPOS T2)]	0.97	–	–
GGAAGAGCAGAGCCUUGGUCUCGUUUGAGAGUAGUGUAAGAAAUUACACUACAAGUUCAAAUAAAAAUUUAUUCAAAUCCAUUUGCUACAUUGUGUAGAAUUUAAAGAUCUGGCAACAGAUCUUUUUUU / GGAAGAGCAGAGCCTTGGTCTCNNNNNNNN / NNNNNNNNGAGACCAAGGCTCTGCTCTTCC [T2 sgRNA 12 V2 ; T2 protospacer + 8N PAM library (pbPOS T2)]	0.97	–	–
GGAAGAGCAGAGCCUUGGUCUCGUUGUGAUUUGCUCUCAAAUGAAAAUUUGUGAGACUUAUCACAACAAGGCUAUAAGCCGAAGUAUUAACUCCGCGAUUUUGUCGUGGAGUUUUUUU / GGAAGAGCAGAGCCTTGGTCTCNNNNNNNN / NNNNNNNNGAGACCAAGGCTCTGCTCTTCC [T2 sgRNA 21 V1 ; T2 protospacer + 8N PAM library (pbPOS T2)]	–	0.66	–
GGAAGAGCAGAGCCUUGGUCUCGUUGUGAUUUGCUCUCAAAUGAAAAUUUGUGAGACUUAUCACAACAAGGCUAUAAGCCGAAGUAUUAACUCCGCGAUUAUGUCGUGGAGUUUUUUU / GGAAGAGCAGAGCCTTGGTCTCNNNNNNNN / NNNNNNNNGAGACCAAGGCTCTGCTCTTCC [T2 sgRNA 21 V2 ; T2 protospacer + 8N PAM library (pbPOS T2)]	–	0.78	–
GGAAGAGCAGAGCCUUGGUCUCGUCUUAGUACUCUGUUGGAAACAACAAUAGUUCUAAGAUAAGGCUAUUUAUGCCGUAGGGUAUGGUGGUAUCCCUUUAAUCCACCUUUAAGCCAUUGCUUAUGCAAUGGCUUAUCUAUAUUUUUU / GGAAGAGCAGAGCCTTGGTCTCNNNNNNNN / NNNNNNNNGAGACCAAGGCTCTGCTCTTCC [T2 sgRNA 4 V2 ; T2 protospacer + 8N PAM library (pbPOS T2)]	–	–	activity (1-depletion score) ([3]; PAM NNGGGGNN): 0.97
GGAAGAGCAGAGCCUUGGUCUCGUUUUAGUACUCUGUUGGAAACAACAAUAGUUCUAAGAUAAGGCUAUUUAUGCCGUAGGGUAUGGUGGUAUCCCUUUAAUCCACCUUUAAGCCAUUGCUUAUGCAAUGGCUUAUCUAUAUUUUUU / GGAAGAGCAGAGCCTTGGTCTCNNNNNNNN / NNNNNNNNGAGACCAAGGCTCTGCTCTTCC [T2 sgRNA 4 V1 ; T2 protospacer + 8N PAM library (pbPOS T2)]	–	–	activity (1-depletion score) ([3]; PAM NNGGGGNN (specific NNRGGDNN)): 0.99
